This passage reports protein production results from a protein production outcome set (Wang et al. 2014).

The nature of the series: label from the status in PepcDB records.
For the sequence “MTDNLINNGTKTTPEAEILTAASNSRSSDAQHDDTAPAGEVLLDIDPDELLSDPAEKEETSAQDIALPDHVAGSGSLDRLIDQARDYAEAATAENTNKAYKADWKHFTGWCRRKGVDALVPSPAVIGLYISDCAKPQDGSPALSVSTIERRLSGLAANYRQRGLALDMKDRHIASVWAGIKRHHAKPPTQKEAVLIEDVLAMVGALSYSLRDLRDRAILLIGYAGGLRRTEIVGLDVGKDESDDGRGWVEILEGGAVLHIKGKTGWREVEIGRGSADQTCPVYALEQWLHYAKIDVGSVFRQVFRDNSRIGPERLSDKHVVRLIKRLVLETGVGLDRPALSKLSDEERAKFFAGHSLRAGLASGAEVDERYVQKQLGHASAEMTRRYQRRRDRFRVNLTKAVGL”, the protein production result is reported as “failed”.
“MPGAEKGPQPRRPDFTEAGVIQNRAAGRNRSPDPSPDGAQARRRSWRNQGAWLSFVAWPHRRGSATVEPPPLTLRQQLTTVRWLLTGLFAMMLLVFLYFGRDVLMPIVLALLLALMLSPIVRLLRRRKVPEGVAAVVVTLGFAAGMLLIGFTISGPVATWLEDAPSIGKRIAHKLSSLRESFDVVLDASRQVEEAADTSSKDNTDRVVMAQPGLLVKAADSLASGFTTFGVTIVITLFFLASGSMFTEKIVHVMPLFRDKLRVLRVVRDIETEVSSYLLTVAMINAGLGVAVGCALWLAGMPNAFLWGGMAMVLNFLPYIGSMIGISLVALVSFVTFDSLGQALIPPLSYLAVTSVEGQFLTPAIVGRRLELNALSVMLAVLFWAWLWGIVGALIAVPLLVVVKVVCSHFEGLAVVGEFLSARRPFSDQVKDGA”: the protein production result is reported as “failed”.
Under “MKFIIEALKRVRERRPLVHNITNFVVMNTTANALLALGASPVMAHAEEELEEMIRLADAVVINIGTLDSGWRRSMVKATEIANELGKPIVLDPVGAGATKFRTRVSLEILSRGVDVLKGNFGEISALLGEEGKTRGVDSLEYGEEEAKKLTMNAAREFNTTVAVTGAVDYVSDGRRTFAVYNGHELLGRVTGTGCMVAALTGAFVAVTEPLKATTSALVTFGIAAEKAYEEAKYPGSFHVKLYDWLYRINENVIRTYAKVREVEL” stands “not failed”; under “MTHTHRPAALEVHHPQPLAVHPTVAPLVTVQPGPTPAVQSIVLPDGRVVTGYTLTPAPALAPVDARPAVSRTAVNVALGGVGFAAVCGGLVLLTTFIAALTTFISQLITLAAVIFGGWIAVQILGGTRHTGRGGTTINIRKAVIKRSHFHG”, “failed”.
In the case of “MTPLHGAATPASASAAGSMKASHEASADPRSRFFDERAATWEQRCYPPEARRRLAALVPRFGVERGDCVLDMGTGTGVLIPYLRDGVGDAGRILSFDVSFEMVRRAGCKERDAKGLCVQATAMRIPARDGVFDRVVCFAAFPHFADKPAAMREMARVVRPGGEVVIAHLLSRAELARHHGGHPAVAEDALPDDATMRGLMHDAGLVEGSITDGPGMYVARARKPRTCRAGEGGVPGTPGTPGGRAGGSAGGEGAESAIAGDAEGNGSGVEAGFEARRVFTALKQNDAMHHSAVYGVLSGLLRAFACDAALPHGAPGQGGALRILDVGCGEAADVVQALEGVTVGAYTGVDTSAPALAEARRHLAALGCPVTLIEGDYRLALNTSQGSVDVLWMGLFLHHLPRALKADFLHTAHGLLAPGGMVLAHDPIMGEDDTRETMLARMEAIGRERWHFLTPEEVGMVHRHWSCHGHQERFSDLCALGEAAGFEVDMVWHDADRTYGLVRFMRRG” it was “failed”; in that of “MSSSDIFIGETIGTAVLILLGGGVCAAVTLKASKARNAGWLAITFGWGFAVLTAVYISAPLSGAHLNPAVTLALAIKDNDWSNVPTYWAGQLLGAMIGAALVWVAYYGQFHAHLTDHEIVGGPGAQATKTKAVEAQETGAGPVLGVFSTGPEVRNVVQNLATEIIGTVVLVLAILTQGLNDNGNGLGTIGALITSLVVVSIGLSLGGPTGYAINPARDLGPRIVHALLPLPNKGGSDWSYAWIPVVGPLIGAAIAAGIYNVAFA”, “failed”.
Under “MVLLLRYRSLTINLTPLIPKSQKFHTLQSFRNPNFISIPKISASTNNPTTTTNRSISDATKFAKSVLFIPPGVEIEELTDDMVLPGSNIVIGPFAGHSQIKEVEFVKSSARARDCPKDDRPEIAILGRSNVGKSSLINCLVRKKEVALTSKKPGKTQLINHFLVNKSWYIVDLPGYGFAKVSDAAKTDWSAFTKGYFLNRDSLVCVLLLIDASVPPQKIDLDCANWLGRNNVPMTFVFTKCDKMKATKGKRPDENIKAFQQIIRENFKVHPPWILTSSVSGLGRDELLLHMSQLRNYWDQ” stands “failed”.
